Reference: PMC6796863, “Structural insight into human N6amt1–Trm112 complex functioning as a protein methyltransferase” (Cell Discovery, 2019)

Biological target: T1, human N6amt1–Trm112 complex (human, UniProt Q9Y5N5 1-214; Q9UI30 1-125)
T1 construct: human N6amt1 (HemK2), full length, 214 amino acids; human Trm112, full length; SAM co-purifies with the complex; before the ITC titration the complex was incubated with SAH at a molar ratio of 1:2; also called the protein complex; source: E. coli BL21(DE3), co-expressed from pET-Duet, purified (Ni-NTA, gel filtration)
T1 sequence (looked up) 1: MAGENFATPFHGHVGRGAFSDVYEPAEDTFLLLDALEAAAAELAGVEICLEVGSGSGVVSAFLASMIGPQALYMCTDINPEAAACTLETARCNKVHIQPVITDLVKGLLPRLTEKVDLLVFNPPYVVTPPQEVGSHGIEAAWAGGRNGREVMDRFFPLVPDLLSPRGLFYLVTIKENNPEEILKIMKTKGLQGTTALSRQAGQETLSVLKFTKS
T1 sequence (looked up) 2: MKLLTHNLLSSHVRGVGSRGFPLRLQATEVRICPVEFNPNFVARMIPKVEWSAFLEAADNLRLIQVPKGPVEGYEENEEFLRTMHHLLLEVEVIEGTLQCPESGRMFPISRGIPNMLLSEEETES
Experiment: ITC; 2 mM peptide injected into 0.1 mM N6amt1–Trm112 in the cell, 20 °C; complex incubated beforehand with SAH at a molar ratio of 1:2; single binding site model
Details: both partners purified

B1: Gln185-centered 15-residue peptide of human eRF1 (GGQ peptide) (peptide)
peptide: KKHGRGGQSALRFAR
notes: human eRF1, 15-residue peptide centered at Gln185; also called 15-residue GGQ peptide of eRF1
**Q.** B1 was tested. Which Kd did it give?
**A.** Its Kd is 490 ± 150 µM.
